Experimental data: US20200140551A1 (GlaxoSmithKline, published 2020)

Experiments:
[1] = molecular target: T1, human ICOS (human, UniProt Q9Y6W8 21-140, limits assumed); test: MSD competition assay: inhibition of ICOS-L binding to ICOS by titrated antibody, bar chart in raw luminescence units
T1 sequence: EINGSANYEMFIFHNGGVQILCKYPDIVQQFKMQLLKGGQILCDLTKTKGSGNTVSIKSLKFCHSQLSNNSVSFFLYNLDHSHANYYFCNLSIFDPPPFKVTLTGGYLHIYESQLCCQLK

[2] = molecular target: T2, human ICOS on human T cells (human, UniProt Q9Y6W8 21-167); test: flow cytometry, activated human CD4 T cells, percent FITC positive, donor 1124F36
T2 construct: endogenous receptor on primary cells; also called ICOS on CD4+ and CD8+ T cells of healthy human donors
T2 sequence: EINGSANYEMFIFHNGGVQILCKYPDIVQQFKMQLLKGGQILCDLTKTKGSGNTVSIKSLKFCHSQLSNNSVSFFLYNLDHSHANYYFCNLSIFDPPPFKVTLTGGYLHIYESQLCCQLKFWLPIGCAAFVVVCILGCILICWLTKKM
Method: (§1) Binding of H2L5 hIgG4PE was assessed in both naive and activated CD3+ T cells.
(§2) Either naive and/or activated CD3+ T cells were re-suspended in PBS with 0.1% BSA (FACS Buffer) containing Human FcR Blocking Solution at 2×10⁶ cells/mL (5 μl FcR Blocking Solution+[…] FACS Buffer per 1 mL). At a concentration of 2×10⁵ cells/well, 100 μl cells were placed into 2 mL 96 well Assay Blocks and incubated at room temperature for 15 minutes. During the incubation, a titration of the binding antibodies, anti-ICOS (H2L5 hIgG4PE) or IgG4 Isotype Control antibody was prepared as a 2× concentration. […] Following the binding incubation, cells were washed twice in 1 mL of FACS buffer, centrifuging at 400×g for 5 minutes at room temperature.
(§3) Data acquisition and compensation were performed on BD FACS instruments, LSR Fortessa X-20 or FACS Canto II using BD Diva (ver. 8.0) software. Data analysis employed Flow Jo software (ver.10.0.8r1). Results are reported as both MFI (Median Fluorescence Intensity) and Percent of cells positive for human IgG kappa light chain FITC staining out of the total live cells or appropriate parent population. EC50s were determined using Graphpad Prism 5 software (ver. 5.04) with non-linear regression of transformed data (X=(log(X)) using a variable slope with 4 parameters (log(Agonist) vs. response—Variable slope).

[3] = molecular target: T2, human ICOS on human T cells; test: flow cytometry, activated human CD4 T cells, FITC MFI, donor 1123F59
Method: as §1, §2, §3

[4] = molecular target: T2, human ICOS on human T cells; test: flow cytometry, activated human CD4 T cells, percent FITC positive, mean of donors
Method: as §1, §2, §3

[5] = molecular target: T2, human ICOS on human T cells; test: flow cytometry, activated human CD8 T cells, percent FITC positive, donor 1173F42
Method: as §2, §3

[6] = molecular target: T2, human ICOS on human T cells; test: flow cytometry, activated human CD4 T cells, FITC MFI, median of donors
Method: as §1, §2, §3

IC50 (read off the curve) [1]: ~2 µg/mL
EC50 [2]: 0.45 µg/mL
EC50 [3]: 1.04 µg/mL
EC50 [4]: 0.763 µg/mL
EC50 [5]: 0.371 µg/mL
EC50 [6]: 1.04 µg/mL
B1: H2L5 hIgG4PE (antibody)
heavy: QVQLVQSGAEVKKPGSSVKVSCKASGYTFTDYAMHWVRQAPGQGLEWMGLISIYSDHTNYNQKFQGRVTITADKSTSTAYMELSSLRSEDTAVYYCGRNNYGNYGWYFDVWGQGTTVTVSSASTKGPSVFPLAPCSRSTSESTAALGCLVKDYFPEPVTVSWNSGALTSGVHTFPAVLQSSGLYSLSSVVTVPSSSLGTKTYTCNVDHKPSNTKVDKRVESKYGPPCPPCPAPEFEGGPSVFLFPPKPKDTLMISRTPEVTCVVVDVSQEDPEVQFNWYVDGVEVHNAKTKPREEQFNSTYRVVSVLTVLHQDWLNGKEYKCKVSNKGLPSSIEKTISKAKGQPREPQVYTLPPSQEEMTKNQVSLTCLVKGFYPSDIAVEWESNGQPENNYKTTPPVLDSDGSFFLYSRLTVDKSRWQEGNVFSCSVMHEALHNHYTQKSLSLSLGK
light: EIVLTQSPATLSLSPGERATLSCSASSSVSYMHWYQQKPGQAPRLLIYDTSKLASGIPARFSGSGSGTDYTLTISSLEPEDFAVYYCFQGSGYPYTFGQGTKLEIKRTVAAPSVFIFPPSDEQLKSGTASVVCLLNNFYPREAKVQWKVDNALQSGNSQESVTEQDSKDSTYSLSSTLTLSKADYEKHKVYACEVTHQGLSSPVTKSFNRGEC
notes: also called 422 H2L5 hIgG4PE; H2L5 IgG4PE; copies: 2 + 2
